Assay results published in PMC5715787, “Structural basis for antibody recognition of the NANP repeats in Plasmodium falciparum circumsporozoite protein” (Proceedings of the National Academy of Sciences of the …, 2017).

T1: Ac-DPNANPNVDPNA-NH2 peptide (Plasmodium falciparum CSP repeat …)
T1 chain: Ac-DPNANPNVDPNA-NH2

T2: Ac-NPNVDPNANPNV-NH2 peptide (Plasmodium falciparum CSP repeat …)
T2 chain: Ac-NPNVDPNANPNV-NH2

B1: Fab317 (Fab, V domains shown)
VH: QMQLVESGGGVVQPGRSLRLSCTASGFTFSTYAMHWVRQSPGQGLQWVAVISYHSTNKYYEDSVRGRFTISRDNSKNTLYLQMNSLRAEDTAVYYCARDGYSSSFFDFWGQGTLVTVSS
VL: DIQMTQSPSTLSASVGDRVAITCRASQSISRWLAWYQQQPGKAPKLLMSGASVLESGVPSRFSGSGSGTEFTLTISSLQPDDFATYYCQHYNSYFVTFGQGTKVEIK
B2: Fab311 (Fab, V domains shown)
VH: QVQLVESGGGVVPPGRSLRLSCATSGFTFSNYGMHWVRQAPGKGLEWVAIIWYDGSRNFYAASVEGRFTISRDNSKNTLYLQMNSLRVEDTAVYYCARAAYYDTSGYGDYWGQGTLVTVSS
VL: QSVLTQPPSVSGAPGQTVTISCTGGSSNIGAGYDVHWYQQLPGTAPKLLIYGNINRPSGVPDRFSGSKSGTSASLAITGLQAEDEADYYCQSYDRRLSGSWVFGGGTKLTVL

Tests used:
Assay in all cases: ITC; MicroCal Auto-iTC200; triplicate (or duplicate) experiments; details in SI
Settings in all cases: both partners purified
[1] = molecular target: T3, (NPNA)3 peptide, Ac-[residues removed]-NH2 (Plasmodium falciparum CSP repeat …)
T3 construct: also called 12-mer

(NPNA)2 peptide = (NPNA)2 peptide (Plasmodium falciparum CSP repeat …)
[2] = molecular target: T1, Ac-DPNANPNVDPNA-NH2 peptide
[3] = molecular target: T2, Ac-NPNVDPNANPNV-NH2 peptide

| Binder | Kd [1] [nM] | dH [1] [kcal/mol] | stoichiometry N [1] | Kd ((NPNA)2 peptide) [nM] | dH ((NPNA)2 peptide) [kcal/mol] | stoichiometry N ((NPNA)2 peptide) | Kd [2] [nM] | dH [2] [kcal/mol] | stoichiometry N [2] | Kd [3] [nM] | dH [3] [kcal/mol] | stoichiometry N [3] |
| --- | --- | --- | --- | --- | --- | --- | --- | --- | --- | --- | --- | --- |
| B1 | 78 | -15.7 | 1.27 | 173 | -12.1 | 1.41 | 448 | -9.39 | 1.64 |  |  |  |
| B2 | 305 | -29.8 | 0.74 | 296 | -16.4 | 1.5 | 1370 | -20.2 | 1.2 | 1790 | -18.7 | 1.24 |
